The values that follow come from patent publication US20180030118A1.

What all share (experiment): ELISA, GP coated 200 ng/well, mAb at 2 ug/mL; negative control
On the technique in general: An ELISA detects its analyte on a solid surface through an enzyme-linked reagent.

Assay [1] addresses MARV Angola GPe (Marburg virus, strain Angola) (UniProt Q1PD50).
The target in assay [2] is MARV Ravn GPe (Marburg virus, strain Ravn) (UniProt Q1PDC7).
In assay [3] the target is MARV Musoke GPe (Marburg virus, strain Musoke) (UniProt P35253).
Sequence of MARV Musoke GPe (Marburg virus, strain Musoke) (P35253 19-648): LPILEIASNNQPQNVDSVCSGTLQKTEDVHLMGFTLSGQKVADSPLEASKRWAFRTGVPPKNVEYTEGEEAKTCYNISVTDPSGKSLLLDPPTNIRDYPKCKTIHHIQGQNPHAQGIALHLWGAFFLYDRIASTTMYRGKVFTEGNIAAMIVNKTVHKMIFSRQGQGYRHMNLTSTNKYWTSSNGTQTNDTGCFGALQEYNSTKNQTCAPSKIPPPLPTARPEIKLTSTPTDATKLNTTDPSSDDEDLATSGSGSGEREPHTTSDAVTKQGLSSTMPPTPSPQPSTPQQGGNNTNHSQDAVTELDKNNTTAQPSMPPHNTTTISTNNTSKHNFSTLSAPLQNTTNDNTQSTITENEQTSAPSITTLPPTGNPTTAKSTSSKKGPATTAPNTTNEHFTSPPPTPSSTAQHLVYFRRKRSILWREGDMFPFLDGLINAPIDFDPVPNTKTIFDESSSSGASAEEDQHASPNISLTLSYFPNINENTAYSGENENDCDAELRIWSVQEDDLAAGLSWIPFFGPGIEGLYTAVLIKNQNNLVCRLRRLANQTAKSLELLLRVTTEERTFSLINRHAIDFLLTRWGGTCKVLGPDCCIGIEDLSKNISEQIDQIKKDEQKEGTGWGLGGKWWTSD

Sequence of MARV Angola GPe (Marburg virus, strain Angola) (Q1PD50 19-648): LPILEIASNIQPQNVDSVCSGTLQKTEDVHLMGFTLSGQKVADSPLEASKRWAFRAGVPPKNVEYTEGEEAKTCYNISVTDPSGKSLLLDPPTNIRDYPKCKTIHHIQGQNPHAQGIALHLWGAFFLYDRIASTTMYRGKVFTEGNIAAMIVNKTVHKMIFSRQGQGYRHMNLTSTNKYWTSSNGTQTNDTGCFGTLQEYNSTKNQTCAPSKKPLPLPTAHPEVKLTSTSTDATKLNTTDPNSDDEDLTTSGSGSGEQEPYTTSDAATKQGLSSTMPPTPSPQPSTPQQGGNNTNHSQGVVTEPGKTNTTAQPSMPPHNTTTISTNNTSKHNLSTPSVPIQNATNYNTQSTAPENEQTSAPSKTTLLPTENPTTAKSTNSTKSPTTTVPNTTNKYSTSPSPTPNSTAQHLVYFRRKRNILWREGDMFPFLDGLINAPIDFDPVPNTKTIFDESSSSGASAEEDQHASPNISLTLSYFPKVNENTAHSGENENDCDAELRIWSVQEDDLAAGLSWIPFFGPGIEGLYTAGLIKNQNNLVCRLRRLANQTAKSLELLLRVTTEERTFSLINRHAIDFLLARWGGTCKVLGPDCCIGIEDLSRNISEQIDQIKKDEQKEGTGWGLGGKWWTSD
Sequence of MARV Ravn GPe (Marburg virus, strain Ravn) (Q1PDC7 19-648): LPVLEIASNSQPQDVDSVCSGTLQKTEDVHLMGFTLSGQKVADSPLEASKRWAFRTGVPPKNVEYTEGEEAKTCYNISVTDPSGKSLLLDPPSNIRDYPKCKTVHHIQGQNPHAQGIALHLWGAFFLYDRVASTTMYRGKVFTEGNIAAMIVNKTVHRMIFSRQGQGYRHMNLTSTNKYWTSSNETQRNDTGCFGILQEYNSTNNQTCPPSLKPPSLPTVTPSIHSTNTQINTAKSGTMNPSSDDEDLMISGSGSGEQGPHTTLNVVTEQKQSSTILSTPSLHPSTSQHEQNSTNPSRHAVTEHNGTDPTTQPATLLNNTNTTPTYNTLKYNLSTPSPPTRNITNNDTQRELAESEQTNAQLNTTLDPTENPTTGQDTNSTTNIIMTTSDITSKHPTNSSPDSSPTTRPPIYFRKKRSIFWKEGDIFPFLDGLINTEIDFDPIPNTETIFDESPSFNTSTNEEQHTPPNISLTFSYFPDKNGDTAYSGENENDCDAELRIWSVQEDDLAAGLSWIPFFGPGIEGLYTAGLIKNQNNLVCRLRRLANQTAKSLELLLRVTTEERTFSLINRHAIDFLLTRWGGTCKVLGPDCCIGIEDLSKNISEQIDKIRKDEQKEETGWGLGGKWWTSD

Take IgG Neg Control (human) (antibody): the results for the OD405 @ 30 min in assay [1], in assay [2] and in assay [3] were 0.054 OD405, 0.052 OD405 and 0.056 OD405, respectively.

Regarding IgG Neg Control (murine) (antibody), the OD405 @ 30 min in assay [1] came to 0.047 OD405; in assay [2], 0.049 OD405; in assay [3], 0.049 OD405.
